Results taken from patent US20230204567A1 (Takeda / Millennium, published 2023).

Legend:
[1] = target: T1, inactivated DENV1 (West Pacific 74, Microbix) (Dengue virus serotype 1, UniProt P17763 281-775); assay: ELISA, antigen coated at 1 µg/mL, hybridoma supernatant, anti-rabbit IgG-HRP
T1 construct: also called dengue virus serotype 1

[2] = target: T2, ZIKV E protein (Native Antigen) (Zika virus); assay: as above
T2 chain: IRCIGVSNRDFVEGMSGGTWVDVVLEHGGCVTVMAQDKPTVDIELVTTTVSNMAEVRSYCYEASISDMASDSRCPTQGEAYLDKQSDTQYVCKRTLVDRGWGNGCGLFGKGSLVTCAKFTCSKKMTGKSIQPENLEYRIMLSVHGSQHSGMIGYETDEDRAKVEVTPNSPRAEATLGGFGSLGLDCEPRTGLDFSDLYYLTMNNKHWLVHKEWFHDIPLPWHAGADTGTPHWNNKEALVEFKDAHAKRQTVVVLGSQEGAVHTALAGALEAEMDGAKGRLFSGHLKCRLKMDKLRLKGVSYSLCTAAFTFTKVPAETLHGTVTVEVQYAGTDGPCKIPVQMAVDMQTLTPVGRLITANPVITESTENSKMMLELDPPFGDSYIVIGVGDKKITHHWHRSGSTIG

[3] = target: T3, inactivated DENV4 (TVP-360, Microbix) (Dengue virus serotype 4); assay: as above
T3 construct: also called dengue virus serotype 4

[4] = target: T4, inactivated DENV2 (16681; Microbix) (Dengue virus serotype 2, UniProt P29990 281-775); assay: as above
T4 construct: also called dengue virus serotype 2

[5] = target: T5, inactivated DENV3 (CH53489, Microbix) (Dengue virus serotype 3); assay: as above
T5 construct: also called dengue virus serotype 3

[6] = target: T1, inactivated DENV1 (West Pacific 74, …); assay: ELISA, antigen coated at 1 µg/mL, hybridoma supernatant
[7] = target: T4, inactivated DENV2 (16681; Microbix); assay: as above

T1 sequence (P17763 281-775 limits assumed): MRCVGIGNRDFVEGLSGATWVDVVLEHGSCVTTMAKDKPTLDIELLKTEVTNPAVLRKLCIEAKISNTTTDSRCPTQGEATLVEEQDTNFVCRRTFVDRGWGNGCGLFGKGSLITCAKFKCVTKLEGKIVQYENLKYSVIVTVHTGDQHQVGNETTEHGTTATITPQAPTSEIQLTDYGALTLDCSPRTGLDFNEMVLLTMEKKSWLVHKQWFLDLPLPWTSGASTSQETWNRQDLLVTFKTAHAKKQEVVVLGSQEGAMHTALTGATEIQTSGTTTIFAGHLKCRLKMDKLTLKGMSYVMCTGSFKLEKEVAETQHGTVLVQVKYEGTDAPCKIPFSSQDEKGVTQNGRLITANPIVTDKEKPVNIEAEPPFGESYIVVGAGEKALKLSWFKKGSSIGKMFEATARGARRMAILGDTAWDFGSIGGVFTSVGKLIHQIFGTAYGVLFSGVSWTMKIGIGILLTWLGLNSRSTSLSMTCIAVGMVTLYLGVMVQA

B1: Anti-ZIKV #2 (IgG, Clone 306-2) (antibody, V domains shown)
VH: QSLEESGGDLVKPGASLTLTCTASGFDFSDRYYMCWVRQAPGKGLEWIGCIYVGSGDTYYASWAKGRFTISRTSSTTVTLQMTRLTAADTATYFCARHPGTYFTLWGPGTLVTVSS
VL: DVVMTQTPSSVSAAVGGTVTINCQASQNIVNNLAWYQQRPGQPPKLLIYDTSTLASGVPSRFKGSGSGTEFTLTISDLECADAATYYCQTYYYYNKIINGFGGGTEVVVKG
notes: also called antibody 2; acceptor Ab of mAb pairs #1 to 3
optical density (OD) [1]: 0.037 OD | optical density (OD) [2]: 0.61 OD | optical density (OD) [3]: 0.048 OD | optical density (OD) [4]: 0.034 OD | optical density (OD) [5]: 0.034 OD | binding result [6]: no binding | binding result [7]: no binding

B2: Anti-ZIKV #1 (IgG, Clone 242-3) (antibody, V domains shown)
VH: QAQLEESGGDLVKPEGSLTLTCTASGFSFTDRHYMCWIRQAPGKGLEWIACVYPGSSGSTYYASWARGRFTISKTSSTTVTLRMTSLTAADTATYFCARSSYPDSSGYSYGMDLWGPGTLVTVSS
VL: DIVMTQTPASVEAAVGGTVTIKCQASQNINSNLAWYQQKPGQRPKFLMYLTSKLASGVPSRFRGSGSGTQFTLTISDLECADAATYYCQTYYDISNYGYAFGGGTEVVVKG
notes: also called antibody 1; donor Ab of mAb pair #1
optical density (OD) [1]: 0.04 OD | optical density (OD) [2]: 0.33 OD | optical density (OD) [3]: 0.038 OD | optical density (OD) [4]: 0.034 OD | optical density (OD) [5]: 0.04 OD | binding result [6]: no binding | binding result [7]: no binding
